Results on seven molecules are retold here after article PMC5027247, “Structural insights into the interaction and disease mechanism of neurodegenerative disease-associated optineurin and TBK1 proteins” (Nature Communications, 2016).

To fix the notation:
B5: TBK1 CTD (residues 677–729) (domain or fragment, human, UniProt Q9UHD2 677-729, looked up)
chain: YPSSNTLVEMTLGMKKLKEEMEGVVKELAENNHILERFGSLTMDGGLRNVDCL
notes: For the crystal with NAP1 TBD it was made as a NAP1(215–254)-TEV site-TBK1 CTD fusion that was cut with 3C and TEV; not shown: Trx-His6 (pET-32M) or GST (pET-GST), N-terminal, cleaved
B7: TBK1 CTD(E696K) (domain or fragment, human, UniProt Q9UHD2 677-729, looked up)
chain: YPSSNTLVEMTLGMKKLKEKMEGVVKELAENNHILERFGSLTMDGGLRNVDCL
notes: also called TBK1 E696K mutant; not shown: Trx-His6 (pET-32M) or GST (pET-GST), N-terminal, cleaved

Series [1] concerns the molecule itself. As to the kind of experiment: SEC-MALS; 100 μl at 20 μM on Superose 12 10/300 GL; 50 mM Tris-HCl, 100 mM NaCl, 1 mM DTT, 1 mM EDTA, pH 7.5.
Series [2] concerns the molecule itself. As to the kind of experiment: crystal structure; OPTN(26–103) or OPTN(26–103) E50K with TBK1 CTD; 0.1 M MES pH 6.0, 14% PEG 4000, 16 °C; 2.05 Å and 2.5 Å.
The target in series [3] is T1, GST-tagged OPTN(26–119) M44Q (human, UniProt Q96CV9 26-119, M44Q).
T1 construct: source: E. coli BL21 (DE3), purified (glutathione sepharose 4B, size-exclusion chromatography); not shown: GST, N-terminal, kept
As to the kind of experiment: pull-down; GST-tagged OPTN and Trx-His-tagged TBK1 mixed at 1:4, glutathione sepharose 4B beads; 50 mM Tris pH 7.5, 100 mM NaCl, 1 mM DTT, 1 mM EDTA; Coomassie or anti-His blot. Particulars: both partners purified.

The target in series [4] is T2, GST-tagged OPTN(26–119) L47Q (human, UniProt Q96CV9 26-119, L47Q).
T2 construct: source: E. coli BL21 (DE3), purified (glutathione sepharose 4B, size-exclusion chromatography); not shown: GST, N-terminal, kept
Described as above. Particulars: both partners purified.

Series [5] deals with T3, GST-tagged OPTN(26–119) L54Q (human, UniProt Q96CV9 26-119, L54Q).
T3 construct: source: E. coli BL21 (DE3), purified (glutathione sepharose 4B, size-exclusion chromatography); not shown: GST, N-terminal, kept
The series is described as above. The note with it: both partners purified.

The target of series [6] is T4, OPTN(26–119) (human, UniProt Q96CV9 26-119).
T4 construct: A Se-Met labelled form was used for the 2.5 Å crystal structure with TBK1 CTD; also called OPTN NTD; not shown: Trx-His6 (pET-32M) or GST (pET-GST), N-terminal, cleaved
Put plainly: ITC; 25 °C; 50 mM Tris pH 7.5, 100 mM NaCl, 1 mM EDTA, 1 mM DTT; 1 mM TBK1 fragment in the syringe, 0.1 mM OPTN or NAP1 fragment in the cell; one-site binding model. The note with it: both partners purified.

Series [7] has as its target T5, OPTN(26–119) E50K (human, UniProt Q96CV9 26-119, E50K).
T5 construct: also called OPTN E50K mutant; not shown: Trx-His6 (pET-32M) or GST (pET-GST), N-terminal, cleaved
The description is as above. The note with it: both partners purified.

For series [8], the target named is T6, OPTN(1–119) (human, UniProt Q96CV9 1-119).
T6 construct: not shown: Trx-His6 (pET-32M) or GST (pET-GST), N-terminal, cleaved
The description is as above. Particulars: both partners purified.

Series [9] deals with the molecule itself. As to the kind of experiment: crystal structure; NAP1 TBD/TBK1 CTD complex made as a fusion through a TEV site and cut with 3C and TEV; 1% tryptone, 0.05 M HEPES pH 7.0, 12% PEG 3350, 16 °C; 1.5 Å.
For series [10], the target named is B7. Put plainly: ITC; 25 °C; 50 mM Tris pH 7.5, 100 mM NaCl, 1 mM EDTA, 1 mM DTT; 1 mM TBK1 fragment in the syringe, 0.1 mM OPTN or NAP1 fragment in the cell; one-site binding model. The note with it: both partners purified.
Series [11] deals with B5. The description is as above. Particulars: both partners purified.

T6 sequence (Q96CV9 1-119): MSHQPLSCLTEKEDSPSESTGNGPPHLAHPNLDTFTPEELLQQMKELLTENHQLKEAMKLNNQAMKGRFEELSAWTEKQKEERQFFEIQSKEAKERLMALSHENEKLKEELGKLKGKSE

B1: OPTN(1–119) E50K mutant (domain or fragment, human, UniProt Q96CV9 1-119, looked up)
chain: MSHQPLSCLTEKEDSPSESTGNGPPHLAHPNLDTFTPEELLQQMKELLTKNHQLKEAMKLNNQAMKGRFEELSAWTEKQKEERQFFEIQSKEAKERLMALSHENEKLKEELGKLKGKSE
notes: not shown: Trx-His6 (pET-32M) or GST (pET-GST), N-terminal, cleaved
B1: in series [1], the “stoichiometry N” value was found to be 4.

B2: OPTN(26–103) (domain or fragment, human, UniProt Q96CV9 26-103, looked up)
chain: HLAHPNLDTFTPEELLQQMKELLTENHQLKEAMKLNNQAMKGRFEELSAWTEKQKEERQFFEIQSKEAKERLMALSHE
notes: Forms a dimer in the crystal of the complex with TBK1 CTD; also called short OPTN fragment; not shown: Trx-His6 (pET-32M) or GST (pET-GST), N-terminal, cleaved
For the molecule B2, the binding result in [2] is “binds”.

B3: OPTN(26–103) E50K (domain or fragment, human, UniProt Q96CV9 26-103, looked up)
chain: HLAHPNLDTFTPEELLQQMKELLTKNHQLKEAMKLNNQAMKGRFEELSAWTEKQKEERQFFEIQSKEAKERLMALSHE
notes: as for B1
For B3, the binding result in series [2] is “binds”.

B4: Trx-His-tagged TBK1 CTD (residues 677–729) (domain or fragment, human, UniProt Q9UHD2 677-729, looked up)
chain: YPSSNTLVEMTLGMKKLKEEMEGVVKELAENNHILERFGSLTMDGGLRNVDCL
notes: source: E. coli BL21 (DE3), purified (Ni-NTA, size-exclusion chromatography); not shown: Trx, N-terminal, kept; His6, N-terminal, kept
B4: the binding result in [3], in series [4] and in [5] was “binds” throughout.
For B5, in series [6], the Kd is roughly 2500 nM and the “stoichiometry N” value amounted to 1.15. Also, the “fold increase of binding affinity against the wild-type OPTN” value in series [7] is roughly 43 fold. Also, the Kd in series [8] was roughly 2500 nM. Further, in series [9], the binding result is recorded as “binds”.

B6: NAP1 TBD (residues 215–254) (domain or fragment, human, UniProt Q9H6S1 215-254, looked up)
chain: SSDNMQHAYWELKREMSNLHLVTQVQAELLRKLKTSTAIK
notes: For the crystal it was made as a NAP1(215–254)-TEV site-TBK1 CTD fusion that was cut with 3C and TEV; also called NAP1(215–254); not shown: Trx-His6 (pET-32M) or GST (pET-GST), N-terminal, cleaved
B6: in series [10], the binding result is “binds”. The same molecule returned a dissociation constant (Kd) in [11] of roughly 720 nM.
Turning to B7, the “stoichiometry N” value in series [6] is 0.58.
